T1: androgen receptor (AR) (Homo sapiens, UniProt P10275)
T1 construct: the whole cell actions of TIF2 with full length AR and TRβ; expressed in transfected cells; host or cells: CV-1
T1 sequence (P10275 1-920): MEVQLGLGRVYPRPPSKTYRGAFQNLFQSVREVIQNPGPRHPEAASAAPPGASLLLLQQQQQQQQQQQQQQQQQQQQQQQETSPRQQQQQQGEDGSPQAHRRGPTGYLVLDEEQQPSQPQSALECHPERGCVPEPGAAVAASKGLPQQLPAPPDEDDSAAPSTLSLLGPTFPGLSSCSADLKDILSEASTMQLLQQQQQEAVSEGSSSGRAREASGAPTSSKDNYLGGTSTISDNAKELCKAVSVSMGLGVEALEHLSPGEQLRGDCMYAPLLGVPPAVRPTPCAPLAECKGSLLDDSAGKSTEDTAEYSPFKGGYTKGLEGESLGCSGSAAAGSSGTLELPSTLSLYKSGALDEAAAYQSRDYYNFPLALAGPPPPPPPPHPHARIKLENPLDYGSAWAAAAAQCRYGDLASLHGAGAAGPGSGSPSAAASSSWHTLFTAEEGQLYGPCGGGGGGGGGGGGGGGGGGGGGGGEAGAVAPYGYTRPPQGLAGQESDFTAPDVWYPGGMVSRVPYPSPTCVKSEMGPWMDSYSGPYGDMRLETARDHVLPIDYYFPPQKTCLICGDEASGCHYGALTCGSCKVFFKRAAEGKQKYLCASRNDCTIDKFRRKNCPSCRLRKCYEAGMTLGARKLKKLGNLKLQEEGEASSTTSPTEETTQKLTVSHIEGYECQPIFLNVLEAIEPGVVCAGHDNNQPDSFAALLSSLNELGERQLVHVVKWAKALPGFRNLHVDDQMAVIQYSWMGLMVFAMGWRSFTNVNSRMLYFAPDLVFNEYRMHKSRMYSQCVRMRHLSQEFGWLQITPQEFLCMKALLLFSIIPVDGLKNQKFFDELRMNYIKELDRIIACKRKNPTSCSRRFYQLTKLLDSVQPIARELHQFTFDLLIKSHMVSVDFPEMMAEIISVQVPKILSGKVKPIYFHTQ

T2: androgen receptors (ARs) (Homo sapiens, UniProt P10275)
T2 construct: plus VP16 fused to the indicated full length receptors; expressed in transfected cells; host or cells: CV-1
T2 sequence (P10275 1-920): T1 sequence (P10275 1-920)
T2 sequence (Q6EMB2 838-1281 F1267S partner limits assumed): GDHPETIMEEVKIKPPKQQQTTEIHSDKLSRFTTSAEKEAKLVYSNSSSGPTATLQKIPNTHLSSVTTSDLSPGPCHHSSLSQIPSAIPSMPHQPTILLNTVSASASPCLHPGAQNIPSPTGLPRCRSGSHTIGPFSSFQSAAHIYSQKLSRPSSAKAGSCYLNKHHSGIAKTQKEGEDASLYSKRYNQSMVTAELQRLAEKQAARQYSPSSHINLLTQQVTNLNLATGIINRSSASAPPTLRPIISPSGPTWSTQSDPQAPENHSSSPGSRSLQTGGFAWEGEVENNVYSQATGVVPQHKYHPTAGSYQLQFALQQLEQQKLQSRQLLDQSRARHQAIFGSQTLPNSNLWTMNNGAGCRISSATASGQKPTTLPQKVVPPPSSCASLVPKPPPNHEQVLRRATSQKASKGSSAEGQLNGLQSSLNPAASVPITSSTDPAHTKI

T3: thyroid (TR) (β) receptor (Homo sapiens, UniProt P10828)
T3 construct: plus VP16 fused to the indicated full length receptors; expressed in transfected cells; host or cells: CV-1
T3 sequence (P10828 1-461): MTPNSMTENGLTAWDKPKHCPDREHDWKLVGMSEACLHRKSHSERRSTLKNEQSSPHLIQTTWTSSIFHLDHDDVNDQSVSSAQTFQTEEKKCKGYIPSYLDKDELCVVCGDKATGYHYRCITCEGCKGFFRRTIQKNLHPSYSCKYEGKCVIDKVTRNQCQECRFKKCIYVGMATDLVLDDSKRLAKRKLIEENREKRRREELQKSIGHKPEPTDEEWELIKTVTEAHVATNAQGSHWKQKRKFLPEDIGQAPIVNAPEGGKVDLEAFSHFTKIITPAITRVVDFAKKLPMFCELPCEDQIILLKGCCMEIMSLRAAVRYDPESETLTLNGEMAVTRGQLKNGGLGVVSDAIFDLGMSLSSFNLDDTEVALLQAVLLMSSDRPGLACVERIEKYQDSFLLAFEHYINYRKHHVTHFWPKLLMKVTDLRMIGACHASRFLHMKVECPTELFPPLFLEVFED

B1: STAMP: SRC-1 and TIF2 Associated Modulatory Protein, 1277 amino acid human polypeptide, expressed from transfected plasmid (protein)
chain: MARDLEETASSSEDEEVISQEDHPCIMWTGGCRRIPVLVFHADAILTKDNNIRVIGERYHLSYKIVRTDSRLVRSILTAHGFHEVHPSSTDYNLMWTGSHLKPFLLRTLSEAQKVNHFPRSYELTRKDRLYKNIIRMQHTHGFKVFHILPQTFLLPAEYAEFCNSYSKDRGPWIVKPVASSRGRGVYLINNPNQISLEENILVSRYINNPLLIDDFKFDVRLYVLVTSYDPLVIYLYEEGLARFATVRYDQGAKNIRNQFMHLTNYSVNKKSGDYVSCDDPEVEDYGNKWSMSAMLRYLKQEGRDTTALMAHVEDLIIKTIISAELAIATACKTFVPHRSSCFELYGFDVLIDSTLKPWLLEVNLSPSLACDAPLDLKIKASMISDMFTVVGFVCQDPAQRASTRPIYPTFESSRRNPFQKPQRCRPLSASDAEMKNLVGSAREKGPGKLGGSVLGLSMEEIKVLRRVKEENDRRGGFIRIFPTSETWEIYGSYLEHKTSMNYMLATRLFQDRMTADGAPELKIESLNSKAKLHAALYERKLLSLEVRKRRRRSSRLRAMRPKYPVITQPAEMNVKTETESEEEEEVALDNEDEEQEASQEESAGFLRENQAKYTPSLTALVENTPKENSMKVREWNNKGGHCCKLETQELEPKFNLMQILQDNGNLSKMQARIAFSAYLQHVQIRLMKDSGGQTFSASWAAKEDEQMELVVRFLKRASNNLQHSLRMVLPSRRLALLERRRILAHQLGDFIIVYNKETEQMAEKKSKKKVEEEEEDGVNMENFQEFIRQASEAELEEVLTFYTQKNKSASVFLGTHSKISKNNNNYSDSGAKGDHPETIMEEVKIKPPKQQQTTEIHSDKLSRFTTSAEKEAKLVYSNSSSGPTATLQKIPNTHLSSVTTSDLSPGPCHHSSLSQIPSAIPSMPHQPTILLNTVSASASPCLHPGAQNIPSPTGLPRCRSGSHTIGPFSSFQSAAHIYSQKLSRPSSAKAGSCYLNKHHSGIAKTQKEGEDASLYSKRYNQSMVTAELQRLAEKQAARQYSPSSHINLLTQQVTNLNLATGIINRSSASAPPTLRPIISPSGPTWSTQSDPQAPENHSSSPGSRSLQTGGFAWEGEVENNVYSQATGVVPQHKYHPTAGSYQLQFALQQLEQQKLQSRQLLDQSRARHQAIFGSQTLPNSNLWTMNNGAGCRISSATASGQKPTTLPQKVVPPPSSCASLVPKPPPNHEQVLRRATSQKASKGSSAEGQLNGLQSSLNPAASVPITSSTDPAHTKI
B2: STAMP834C: STAMP fragment amino acids 834-1277, receptor interaction domain (RID) (protein)
chain: T2 sequence (Q6EMB2 838-1281 F1267S partner limits assumed)

Experiments:
Assay type in all cases: cell-based
androgen receptor (AR) = biological target: T1, androgen receptor (AR); experiment: AR-mediated induction of GREtkLUC reporter in CV-1 cells; settings: R1881
Procedure: FIG. 6D1-2 illustrate the effects of STAMP and TIF2 on androgen receptor (AR, FIG. 6D1) and thyroid receptor β (TRβ, FIG. 6D2) expression. […] Luciferase activities, normalized to the internal Renilla control values, and the fold changes in EC50 and fold induction were determined and plotted as in FIG. 4B.

androgen receptors (ARs) = biological target: T2, androgen receptors (ARs); experiment: Mammalian two-hybrid assay with VP16 full length receptor: AR; settings: 1 nM R1881
Procedure: (§1) FIG. 6C1-3 illustrate the association of STAMP with assorted steroid/nuclear receptors, including glucocorticoid receptors (GRs), progesterone receptors (PRs), androgen receptors (ARs), estrogen receptors (ER α or β), PPARγ2 receptors, thyroid receptor beta (TR), and retinoid (α) receptors (RAR α or RXR α). Triplicate samples of CV-1 cells were transfected (as described for FIG. 6B) with GAL, or GAL fused to TIF2.4 or STAMP834C, plus VP16 fused to the indicated full length receptors and incubated with the appropriate steroid (1 μM Dex, 20 nM R5020, 1 nM R1881, 0.1 μM triiodothyronine, or 1 μM estradiol, roziglitazone, or 9-cis-retinoic acid). The average relative luciferase activities of 2-3 experiments±S.E.M. were then plotted. FIG. 6C1 illustrates the effects of STAMP association upon GR, PR and AR induced expression. FIG. 6C2 illustrates the effects of STAMP association upon ERα, ERβ and PPARγ2 induced expression. FIG. 6C3 illustrates the effects of STAMP association upon TR, RARα and RXRα induced expression.
(§2) These assays were conducted as described (He et al., 2002). […]

ERβ = biological target: T4, ERβ (Homo sapiens, UniProt Q92731); experiment: Mammalian two-hybrid assay with VP16 full length receptor: ERβ; settings: 1 μM estradiol
T4 construct: plus VP16 fused to the indicated full length receptors; expressed in transfected cells; host or cells: CV-1
T4 sequence (Q92731 whole entry, species assumed, the tested form may be a part): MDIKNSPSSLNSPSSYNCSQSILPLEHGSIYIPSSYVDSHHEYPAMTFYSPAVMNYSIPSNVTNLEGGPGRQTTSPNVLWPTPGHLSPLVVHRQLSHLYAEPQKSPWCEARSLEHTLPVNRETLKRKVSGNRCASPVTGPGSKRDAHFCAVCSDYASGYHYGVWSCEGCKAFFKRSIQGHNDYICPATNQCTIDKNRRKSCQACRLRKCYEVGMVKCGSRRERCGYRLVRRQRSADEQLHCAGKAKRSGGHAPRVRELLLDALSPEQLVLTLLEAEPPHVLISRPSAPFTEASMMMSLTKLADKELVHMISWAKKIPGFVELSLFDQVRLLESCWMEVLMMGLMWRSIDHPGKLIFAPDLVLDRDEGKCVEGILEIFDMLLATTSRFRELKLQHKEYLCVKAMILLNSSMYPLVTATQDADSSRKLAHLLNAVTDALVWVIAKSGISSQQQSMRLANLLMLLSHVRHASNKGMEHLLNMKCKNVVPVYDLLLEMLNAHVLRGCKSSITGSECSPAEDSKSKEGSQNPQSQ
Procedure: as §1, §2

[1] = biological target: T3, thyroid (TR) (β) receptor; experiment: Mammalian two-hybrid assay with VP16 full length receptor: TRβ; settings: 0.1 μM triiodothyronine
Procedure: as §1, §2

| Molecule | left-shift of the dose-response curve of ARs (androgen receptor (AR); STAMP added by itself) | fold induction by AR (androgen receptor (AR); STAMP with TIF2) | fold induction by AR (androgen receptor (AR); STAMP without TIF2) | left-shift of the dose-response curve of ARs (androgen receptor (AR); in the presence of TIF2) | interaction with agonist-bound, full length AR (androgen receptors (ARs)) | interaction with estrogen receptor β (ERβ) | interaction with thyroid receptor β [1] |
| --- | --- | --- | --- | --- | --- | --- | --- |
| B1 | not when added by itself | no additional effect | increases the fold induction | augments the left-shift |  |  |  |
| B2 |  |  |  |  | interacted | lack of interaction | lack of interaction |
